Reference: patent US20030103946A1, “Immunotherapeutic methods and molecules” (Imperial College Innovations Limited, priority 2000, published 2003)
Where two headings read alike, the source gives them in different places.

Legend:
[1] = tested on: CTL from HLA-A0201 negative donors; assay: Stimulation of peptide-specific allorestricted CTL responses by peptide; assay type: cell-based, human
Text: Peptide-specific CTL were isolated from HLA-A0201 negative donors using the method described in WO 97/26328. Three peptide-specific lines were established and found to show specific killing of T2 target cells presenting peptide 1218 but not targets presenting control HLA-A0201− binding peptides (HBV(18-27)).
Peptide-specific CTL were isolated from HLA-A0201 negative donors using the method described in WO 97/26328. Three peptide-specific lines were established and found to show specific killing of T2 target cells presenting peptide 1218 but not targets presenting control peptides.

[2] = biological target: T1, HLA-A0201 (Homo sapiens, UniProt P04439, D140Y/D185E/D98H/E176V/E277Q/G131W/G231S/I119V/I121R/I166T/I218V/L300P/L318F/N151K/N90K/P208A/P217A/Q86G/Q94H/R138H/R169H/T345S); assay: T2 assay: HLA-A0201 binding of peptides (stabilisation of HLA-A0201 expression in TAP-deficient T2 cells)
T1 construct: ability of peptides to stabilise HLA-A0201 expression in the TAP-deficient T2 cells; endogenous in cells; host or cells: T2 cells (human, TAP-deficient; ATCC CRL 1992)
Method: By “HLA-binding” peptide we mean a peptide which binds to one or more HLA molecules. Typically, a peptide will show HLA binding in a T2 binding assay when present in a concentration range of 10 μM to 1 nM. Whether or not a peptide of human CD45 is an HLA-binding peptide can be determined using methods known in the art. These methods include the T2 HLA stabilisation assay described in FIG. 1, and the method described by Elvin et al (1993) J. Immunol. Methods 158, 161-171.
Peptide binding was measured using the T2 assay that is based on the ability of peptides to stabilise HLA-A0201 expression in the TAP-deficient T2 cells.
Sixteen peptides of the CD45 molecule were selected and 14 of them we tested in HLA-A0201 binding assays as described in the legend to FIG. 1.

- HLA-A0201 binding [2]: binds HLA-A0201
- HLA-A0201 binding ([2]; listed as Peptide 1218): one of the best binders
- HLA-A0201 binding ([2]; listed as p1218): one of the best binding peptides
- HLA-A0201 binding ([2]; listed as peptide 1218): one of the best binders
Sequence: FLYDVIAST [huCD45/1218, peptide of human CD45]
- induction of peptide specific CTL ([1]; listed as Peptide 1218): can induce peptide specific CTL
- induction of peptide specific CTL ([1]; listed as p1218): reliably generate peptide-specific, allorestricted CTL
